Experimental data: publication PMC9461191 (Journal of Translational Medicine, 2022)

B1: utomilumab (antibody, V domains shown)
VH: EVQLVQSGAEVKKPGESLRISCKGSGYSFSTYWISWVRQMPGKGLEWMGKIYPGDSYTNYSPSFQGQVTISADKSISTAYLQWSSLKASDTAMYYCARGYGIFDYWGQGTLVTVSS
VL: SYELTQPPSVSVSPGQTASITCSGDNIGDQYAHWYQQKPGQSPVLVIYQDKNRPSGIPERFSGSNSGNTATLTISGTQAMDEADYYCATYTGFGSLAVFGGGTKLTVL
notes: IgG2; IgG2 mAb; also called PF-05082566; utomilumab-IgG2; source: Expi293F, transfected, purified (MabSelect PrismA)
B2: urelumab (antibody, V domains shown)
VH: QVQLQQWGAGLLKPSETLSLTCAVYGGSFSGYYWSWIRQSPEKGLEWIGEINHGGYVTYNPSLESRVTISVDTSKNQFSLKLSSVTAADTAVYYCARDYGPGNYDWYFDLWGRGTLVTVSS
VL: EIVLTQSPATLSLSPGERATLSCRASQSVSSYLAWYQQKPGQAPRLLIYDASNRATGIPARFSGSGSGTDFTLTISSLEPEDFAVYYCQQRSNWPPALTFGGGTKVEIK
notes: IgG4; IgG4 mAb; also called BMS-663513; urelumab-IgG4; source: Expi293F, transfected, purified (MabSelect PrismA)

What was measured:
HuB6 = assay: flow cytometry on cells; settings: Ab 10 µg/ml (highest point of the titration); antigen transfected into Expi293 cells; parent: est. 17000; read off a plot
urelumab = assay: flow cytometry on cells; settings: Ab 10 µg/ml (highest point of the titration); antigen transfected into Expi293 cells; parent: est. 17000; read off a plot
utomilumab = assay: flow cytometry on cells; settings: Ab 10 µg/ml (highest point of the titration); antigen transfected into Expi293 cells; parent: est. 14000; read off a plot
HuB6 (human) = assay: SPR; HuB6 and human FcγRs; who was immobilised not given; n = 3
Chain of HuB6 (human) (heavy, as listed by the source, chain 1 of 2): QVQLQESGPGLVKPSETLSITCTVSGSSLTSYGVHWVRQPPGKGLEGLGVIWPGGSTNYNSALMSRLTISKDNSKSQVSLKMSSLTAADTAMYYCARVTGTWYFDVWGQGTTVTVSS
Chain of HuB6 (human) (light, as listed by the source, chain 2 of 2): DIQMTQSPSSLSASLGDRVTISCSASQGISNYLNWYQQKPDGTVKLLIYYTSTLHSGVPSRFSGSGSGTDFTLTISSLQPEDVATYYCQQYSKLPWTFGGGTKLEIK

cynomolgus 4-1BB-mFc = biological target: T1, cynomolgus 4-1BB-mFc (Macaca fascicularis, UniProt A9YYE7); assay: ELISA; indirect ELISA; plates coated with 4-1BB-mFc (1 μg/mL mouse, 350 ng/mL cynomolgus) in carbonate buffer; serially diluted antibodies, room temperature 2 h; HRP goat anti-human Fc; settings: both partners purified
T1 construct: cynomolgus monkey 4-1BB, UniProt A9YYE7, extracellular domain; also called Cy4-1BB; cynomolgus monkey 4-1BB; source: Expi293F, transfected, purified (MabSelect PrismA); not shown: Fc (mouse), C-terminal, kept

mouse 4-1BB-ECD-mFc = biological target: T2, mouse 4-1BB-ECD-mFc (Mus musculus, UniProt P20334); assay: as above; settings: both partners purified
T2 construct: mouse 4-1BB, UniProt P20334, extracellular domain; also called Mu4-1BB; murine 4-1BB; source: Expi293F, transfected, purified (MabSelect PrismA); not shown: Fc (mouse), C-terminal, kept
T2 sequence (P20334 24-187): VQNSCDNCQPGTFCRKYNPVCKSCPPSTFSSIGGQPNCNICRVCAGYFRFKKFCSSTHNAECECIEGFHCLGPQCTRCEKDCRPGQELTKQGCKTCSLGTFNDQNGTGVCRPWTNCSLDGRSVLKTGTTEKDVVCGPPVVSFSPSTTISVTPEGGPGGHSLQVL

Hu4-1BB-His = biological target: T3, Hu4-1BB-His (Homo sapiens, UniProt Q07011); assay: BLI; Octet Red96, 25 °C; antibody loaded on AHC biosensors; Hu4-1BB-His 200-12.5 nM in 1 × PBS; 500 s association, 30 min dissociation; settings: both partners purified
T3 construct: human 4-1BB (CD137, TNFRSF9), His-tagged, bought; No catalogue number is printed; also called human 4-1BB; source: bought: Acro biosystems

human 4-1BB ECD = biological target: T4, human 4-1BB ECD (Homo sapiens, UniProt Q07011); assay: SPR; Biacore T200, 25 °C; human 4-1BB ECD amine-coupled on a CM5 chip to 300 RU; antibody from 80 μg/mL in two-fold dilutions injected at 30 μL/min; 1:1 Langmuir model; settings: both partners purified
T4 construct: human 4-1BB (CD137, TNFRSF9), extracellular domain, coupled to the CM5 chip for SPR; also called CD137; TNFRSF9
T4 sequence (Q07011 24-186): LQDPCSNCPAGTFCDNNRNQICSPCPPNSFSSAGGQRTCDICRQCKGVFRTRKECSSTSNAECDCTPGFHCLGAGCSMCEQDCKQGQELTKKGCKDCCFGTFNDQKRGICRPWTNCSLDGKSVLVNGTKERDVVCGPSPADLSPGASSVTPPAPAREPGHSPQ

Molecule | response (HuB6) [Mean FITC] | response (urelumab) [Mean FITC] | response (utomilumab) [Mean FITC] | binding result (mouse 4-1BB-ECD-mFc) | further results
wild-type (WT) human 4-1BB antigen on Expi293F cells (from UniProt Q07011) I132 | 20000 | 17000 | 3900 | – | –
human FcγRIA (from UniProt P12314 16-374) (receptor) | – | – | – | – | Kd (HuB6 (human)): 8.86 nM; koff (HuB6 (human)): 0.0045 s⁻¹; kon (HuB6 (human)): 531000 M⁻¹ s⁻¹
wild-type (WT) human 4-1BB antigen on Expi293F cells (from UniProt Q07011) M101 | 19000 | 17000 | 2600 | – | –
wild-type (WT) human 4-1BB antigen on Expi293F cells (from UniProt Q07011) N42 | 15000 | 900 | 13000 | – | –
B1 | – | – | – | no binding | EC50 (cynomolgus 4-1BB-mFc): 0.038 nM
B2 | – | – | – | no binding | Kd (Hu4-1BB-His): 5.76 ± 0.85 nM; Kd (human 4-1BB ECD): 5.34 ± 0.49 nM
